Data on two molecules can be found in article PMC5460017, “Regulated membrane remodeling by Mic60 controls formation of mitochondrial crista junctions” (Nature Communications, 2017).

Bridge positions count the residues as written; N and C are the ends. Ends that are not written are not given here.

Assay [1] deals with T1, Mic60solΔLBS1 (Chaetomium thermophilum Mic60sol with an internal deletion of LBS1) (Chaetomium thermophilum).
T1 chain: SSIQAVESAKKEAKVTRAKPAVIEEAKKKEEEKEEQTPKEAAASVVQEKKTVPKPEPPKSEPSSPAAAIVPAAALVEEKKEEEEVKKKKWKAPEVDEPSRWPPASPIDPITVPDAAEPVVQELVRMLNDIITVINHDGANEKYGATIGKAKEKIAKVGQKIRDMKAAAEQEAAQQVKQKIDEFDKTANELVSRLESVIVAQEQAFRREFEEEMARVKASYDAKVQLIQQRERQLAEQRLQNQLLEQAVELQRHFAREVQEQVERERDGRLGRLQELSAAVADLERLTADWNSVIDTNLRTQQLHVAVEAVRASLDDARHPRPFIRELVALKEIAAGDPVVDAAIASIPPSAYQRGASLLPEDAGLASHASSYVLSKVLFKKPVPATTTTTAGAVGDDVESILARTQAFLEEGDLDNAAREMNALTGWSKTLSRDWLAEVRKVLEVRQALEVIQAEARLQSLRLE
The assay can be described thus: native gel or EMSA; blue native (BN)-PAGE of purified Mic60 constructs. The note with it: both partners purified.

For assay [2], the target named is T2, Mic60sol (Chaetomium thermophilum Mic60, residues 208–691) (Chaetomium thermophilum).
T2 construct: Mic60 of Chaetomium thermophilum, UniProt G0SHY5, residues 208-691; codon-optimized synthetic cDNA in a modified pET28a; source: E. coli BL21 DE3, purified (Ni-NTA, His6 tag cleaved with PreScission protease, size-exclusion chromatography); not shown: His6, N-terminal, cleaved
The assay can be described thus: ITC; about 450 μM Mic19 construct in the syringe titrated into about 40 μM Mic60 construct in the cell; 10 °C; 20 mM HEPES/NaOH pH 7.5, 150 mM NaCl; untagged proteins. The note with it: both partners purified.

B1: Mic60solΔLBS1 (Chaetomium thermophilum Mic60sol with an internal deletion of LBS1) (domain or fragment)
chain: T1 chain
modifications: His6 tag removed; outer limits 208-691 printed; LBS1 = 563-582 deduced from the printed truncations ending at 562 (no LBS) and 582 (LBS1 kept); check residues lie in the deleted segment and only …
With B1, in assay [1], the “stoichiometry N” value is 2.

B2: isolated CHCH domain of Mic19 (Chaetomium thermophilum) (domain or fragment)
chain: RPLPESVEKARSEVVRCLREHDRRPLNCWQEVEAFKEEVRKLEKGWVDK
modifications: disulfide 17-28
For B2, in assay [2], the Kd is 0.39 µM and the “stoichiometry N” value turned out to be 0.77 ± 0.01.
